According to IntAct's records for PubMed 24290141:

B1: Autophagy-related protein 13 (Homo sapiens), O75143 (parent)
chain: METDLNSQDRKDLDKFIKFFALKTVQVIVQARLGEKICTRSSSSPTGSDWFNLAIKDIPEVTHEAKKALAGQLPAVGRSMCVEISLKTSEGDSMELEIWCLEMNEKCDKEIKVSYTVYNRLSLLLKSLLAITRVTPAYRLSRKQGHEYVILYRIYFGEVQLSGLGEGFQTVRVGTVGTPVGTITLSCAYRINLAFMSTRQFERTPPIMGIIIDHFVDRPYPSSSPMHPCNYRTAGEDTGVIYPSVEDSQEVCTTSFSTSPPSQLSSSRLSYQPAALGVGSADLAYPVVFAAGLNATHPHQLMVPGKEGGVPLAPNQPVHGTQADQERLATCTPSDRTHCAATPSSSEDTETVSNSSEGRASPHDVLETIFVRKVGAFVNKPINQVTLTSLDIPFAMFAPKNLELEDTDPMVNPPDSPETESPLQGSLHSDGSSGGSSGNTHDDFVMIDFKPAFSKDDILPMDLGTFYREFQNPPQLSSLSIDIGAQSMAEDLDSLPEKLAVHEKNVREFDAFVETLQ

Variants of: B1
Conditions: with MAP1LC3A

Variant	effect of a mutation on the interaction
METDLNSQDRKDLDKFIKFFALKTVQVIVQARLGEKICTRSSSSPTGSDWFNLAIKDIPEVTHEAKKALAGQLPAVGRSMCVEISLKTSEGDSMELEIWCLEMNEKCDKEIKVSYTVYNRLSLLLKSLLAITRVTPAYRLSRKQGHEYVILYRIYFGEVQLSGLGEGFQTVRVGTVGTPVGTITLSCAYRINLAFMSTRQFERTPPIMGIIIDHFVDRPYPSSSPMHPCNYRTAGEDTGVIYPSVEDSQEVCTTSFSTSPPSQLSSSRLSYQPAALGVGSADLAYPVVFAAGLNATHPHQLMVPGKEGGVPLAPNQPVHGTQADQERLATCTPSDRTHCAATPSSSEDTETVSNSSEGRASPHDVLETIFVRKVGAFVNKPINQVTLTSLDIPFAMFAPKNLELEDTDPMVNPPDSPETESPLQGSLHSDGSSGGSSGNTHADFVMIDFKPAFSKDDILPMDLGTFYREFQNPPQLSSLSIDIGAQSMAEDLDSLPEKLAVHEKNVREFDAFVETLQ [D442A]	decreasing interaction strength
METDLNSQDRKDLDKFIKFFALKTVQVIVQARLGEKICTRSSSSPTGSDWFNLAIKDIPEVTHEAKKALAGQLPAVGRSMCVEISLKTSEGDSMELEIWCLEMNEKCDKEIKVSYTVYNRLSLLLKSLLAITRVTPAYRLSRKQGHEYVILYRIYFGEVQLSGLGEGFQTVRVGTVGTPVGTITLSCAYRINLAFMSTRQFERTPPIMGIIIDHFVDRPYPSSSPMHPCNYRTAGEDTGVIYPSVEDSQEVCTTSFSTSPPSQLSSSRLSYQPAALGVGSADLAYPVVFAAGLNATHPHQLMVPGKEGGVPLAPNQPVHGTQADQERLATCTPSDRTHCAATPSSSEDTETVSNSSEGRASPHDVLETIFVRKVGAFVNKPINQVTLTSLDIPFAMFAPKNLELEDTDPMVNPPDSPETESPLQGSLHSDGSSGGSSGNTHDAFVMIDFKPAFSKDDILPMDLGTFYREFQNPPQLSSLSIDIGAQSMAEDLDSLPEKLAVHEKNVREFDAFVETLQ [D443A]	decreasing interaction strength
METDLNSQDRKDLDKFIKFFALKTVQVIVQARLGEKICTRSSSSPTGSDWFNLAIKDIPEVTHEAKKALAGQLPAVGRSMCVEISLKTSEGDSMELEIWCLEMNEKCDKEIKVSYTVYNRLSLLLKSLLAITRVTPAYRLSRKQGHEYVILYRIYFGEVQLSGLGEGFQTVRVGTVGTPVGTITLSCAYRINLAFMSTRQFERTPPIMGIIIDHFVDRPYPSSSPMHPCNYRTAGEDTGVIYPSVEDSQEVCTTSFSTSPPSQLSSSRLSYQPAALGVGSADLAYPVVFAAGLNATHPHQLMVPGKEGGVPLAPNQPVHGTQADQERLATCTPSDRTHCAATPSSSEDTETVSNSSEGRASPHDVLETIFVRKVGAFVNKPINQVTLTSLDIPFAMFAPKNLELEDTDPMVNPPDSPETESPLQGSLHSDGSSGGSSGNTHDDFVAIDFKPAFSKDDILPMDLGTFYREFQNPPQLSSLSIDIGAQSMAEDLDSLPEKLAVHEKNVREFDAFVETLQ [M446A]	decreasing interaction strength

Next, values leading:

effect of a mutation on the interaction	Variant
decreasing interaction strength	METDLNSQDRKDLDKFIKFFALKTVQVIVQARLGEKICTRSSSSPTGSDWFNLAIKDIPEVTHEAKKALAGQLPAVGRSMCVEISLKTSEGDSMELEIWCLEMNEKCDKEIKVSYTVYNRLSLLLKSLLAITRVTPAYRLSRKQGHEYVILYRIYFGEVQLSGLGEGFQTVRVGTVGTPVGTITLSCAYRINLAFMSTRQFERTPPIMGIIIDHFVDRPYPSSSPMHPCNYRTAGEDTGVIYPSVEDSQEVCTTSFSTSPPSQLSSSRLSYQPAALGVGSADLAYPVVFAAGLNATHPHQLMVPGKEGGVPLAPNQPVHGTQADQERLATCTPSDRTHCAATPSSSEDTETVSNSSEGRASPHDVLETIFVRKVGAFVNKPINQVTLTSLDIPFAMFAPKNLELEDTDPMVNPPDSPETESPLQGSLHSDGSSGGSSGNTHDDAVMIDFKPAFSKDDILPMDLGTFYREFQNPPQLSSLSIDIGAQSMAEDLDSLPEKLAVHEKNVREFDAFVETLQ [F444A]
decreasing interaction strength	METDLNSQDRKDLDKFIKFFALKTVQVIVQARLGEKICTRSSSSPTGSDWFNLAIKDIPEVTHEAKKALAGQLPAVGRSMCVEISLKTSEGDSMELEIWCLEMNEKCDKEIKVSYTVYNRLSLLLKSLLAITRVTPAYRLSRKQGHEYVILYRIYFGEVQLSGLGEGFQTVRVGTVGTPVGTITLSCAYRINLAFMSTRQFERTPPIMGIIIDHFVDRPYPSSSPMHPCNYRTAGEDTGVIYPSVEDSQEVCTTSFSTSPPSQLSSSRLSYQPAALGVGSADLAYPVVFAAGLNATHPHQLMVPGKEGGVPLAPNQPVHGTQADQERLATCTPSDRTHCAATPSSSEDTETVSNSSEGRASPHDVLETIFVRKVGAFVNKPINQVTLTSLDIPFAMFAPKNLELEDTDPMVNPPDSPETESPLQGSLHSDGSSGGSSGNTHDDFVMADFKPAFSKDDILPMDLGTFYREFQNPPQLSSLSIDIGAQSMAEDLDSLPEKLAVHEKNVREFDAFVETLQ [I447A]
decreasing interaction strength	METDLNSQDRKDLDKFIKFFALKTVQVIVQARLGEKICTRSSSSPTGSDWFNLAIKDIPEVTHEAKKALAGQLPAVGRSMCVEISLKTSEGDSMELEIWCLEMNEKCDKEIKVSYTVYNRLSLLLKSLLAITRVTPAYRLSRKQGHEYVILYRIYFGEVQLSGLGEGFQTVRVGTVGTPVGTITLSCAYRINLAFMSTRQFERTPPIMGIIIDHFVDRPYPSSSPMHPCNYRTAGEDTGVIYPSVEDSQEVCTTSFSTSPPSQLSSSRLSYQPAALGVGSADLAYPVVFAAGLNATHPHQLMVPGKEGGVPLAPNQPVHGTQADQERLATCTPSDRTHCAATPSSSEDTETVSNSSEGRASPHDVLETIFVRKVGAFVNKPINQVTLTSLDIPFAMFAPKNLELEDTDPMVNPPDSPETESPLQGSLHSDGSSGGSSGNTHDDFAMIDFKPAFSKDDILPMDLGTFYREFQNPPQLSSLSIDIGAQSMAEDLDSLPEKLAVHEKNVREFDAFVETLQ [V445A]
